Measured values taken from publication PMC11077072.
Read-outs that look alike come from different tables or passages of the source.

B1: crRNA-A19 + A19 ssDNA target (mixed)
RNA: UAAUUUCUACUAAGUGUAGAUGACAUUUUGCUCUCAAGCUG
DNA: ATTGAACCAGCTTGAGAGCAAAATGTCTGGTAAAGGCCAA
B2: crRNA-A19 + A19 ssDNA-t target (mixed)
RNA: UAAUUUCUACUAAGUGUAGAUGACAUUUUGCUCUCAAGCUG
DNA: AACCAGCTTGAGAGCAAAATGTCTGGTAAAGGCCAA
B3: crRNA-A2 + A2 ssDNA target (mixed)
RNA: UAAUUUCUACUAAGUGUAGAUCAUGCCAAUGCGCGACAUUC
DNA: TTCTTCGGAATGTCGCGCATTGGCATGGAAGTCACACCTT
B4: crRNA-A2 + A2 ssDNA-t target (mixed)
RNA: UAAUUUCUACUAAGUGUAGAUCAUGCCAAUGCGCGACAUUC
DNA: TCGGAATGTCGCGCATTGGCATGGAAGTCACACCTT

Tests used:
[1] = target: T1, LbCas12a (Cas12a, NEB M0653T) (Lachnospiraceae bacterium, UniProt A0A5S8WF58 1-1228); assay: activation kinetics
[2] = target: T1, LbCas12a (Cas12a, NEB M0653T); assay: activation kinetics; remark: listed apart in the source

Binder | Kd [1] | Kd [2]
B1 | 0.36 ± 0.26 nM | 
B2 | 0.3 ± 0.25 nM | 
B3 |  | 1.1 ± 0.4 nM
B4 |  | 1.4 ± 0.7 nM
